Assay results as given in the Human Domainome abundance scans (Beltran et al. 2025).
± gives the uncertainty stated by the source.

B1: E3 ubiquitin-protein ligase TRIM36, residues 208 to 252; numbered along this chain, Q9NQ86 (parent)
chain: KILMCPEHETERINMYCELCRRPVCHLCKLGGNHANHRVTTMSSA

Variants of: B1
Experiment: abundance fitness (aPCA) (normalised: wild type 0, dead -1); higher = more abundant; growth selection in yeast, the domain comes from the species named
Settings: Homo sapiens

Row | Variant | abundance fitness
1 | KILMCPAHETERINMYCELCRRPVCHLCKLGGNHANHRVTTMSSA | -0.064 ± 0.056
2 | KIIMCPEHETERINMYCELCRRPVCHLCKLGGNHANHRVTTMSSA | 0.061 ± 0.079
3 | KINMCPEHETERINMYCELCRRPVCHLCKLGGNHANHRVTTMSSA | -0.013 ± 0.1
4 | KILMCPEHETERINMYCELCRRPVCHLCKLNGNHANHRVTTMSSA | -0.058 ± 0.078
5 | KILMCPEHETERINMYCELCRRPVCHLCKLGGNHAKHRVTTMSSA | -0.023 ± 0.08
6 | KILMCWEHETERINMYCELCRRPVCHLCKLGGNHANHRVTTMSSA | -0.378 ± 0.078
7 | KILMCPEHETERINMYCELCRRPVCHLCSLGGNHANHRVTTMSSA | 0.003 ± 0.055
8 | KILMCPEHETERINMYCELCRRPVCHLYKLGGNHANHRVTTMSSA | -0.904 ± 0.27
9 | KILMCPEHETERINMYCELCRRPVCHLCKLGGNHANHRVTTMSKA | -0.212 ± 0.061
10 | KILMCPEHETERINMYCELHRRPVCHLCKLGGNHANHRVTTMSSA | -0.665 ± 0.13
11 | KILMCPEHETERINMYCELCRRPVCHLCKLGGNMANHRVTTMSSA | -0.431 ± 0.059
12 | KILMCPEHETERINMYCELCRRPVCLLCKLGGNHANHRVTTMSSA | -0.161 ± 0.055
13 | KILMCPEHETERINMYCELCRRPVCHLCKLGGNHANHRVTTMSHA | -0.119 ± 0.067
14 | KILMCPEHETARINMYCELCRRPVCHLCKLGGNHANHRVTTMSSA | -0.376 ± 0.074
15 | KILMCPEHETERINMYCELCRRPVCHLCKLGDNHANHRVTTMSSA | -0.003 ± 0.067
16 | KSLMCPEHETERINMYCELCRRPVCHLCKLGGNHANHRVTTMSSA | -0.19 ± 0.066
17 | KILMCPEHETERWNMYCELCRRPVCHLCKLGGNHANHRVTTMSSA | -0.035 ± 0.15
18 | KILMCPEHETERINMYCELCRRPVCHLCKLGGNHANHRVTTHSSA | -0.524 ± 0.28
19 | KILMCPEHETERINMYAELCRRPVCHLCKLGGNHANHRVTTMSSA | -1.01 ± 0.17

Row | Variant | abundance fitness
20 | KILMCPEHETERINMYCELCRRPVCHLCKLGGNHANPRVTTMSSA | -0.194 ± 0.058
21 | KILMCPEHETERINMYCELCRRPVCHLCKLGGNHANHRVTTMSSK | -0.265 ± 0.36
22 | KILMCPEHETERINMYCELCRRPVCHLCKHGGNHANHRVTTMSSA | -0.078 ± 0.097
23 | KILKCPEHETERINMYCELCRRPVCHLCKLGGNHANHRVTTMSSA | -0.054 ± 0.057
24 | KILMCPEHETERINMYCELCRRPVCHLCKIGGNHANHRVTTMSSA | -0.05 ± 0.11
25 | KILMCPEHETERINMYCELCRRPVCHLCKLGGNHANHRVTTESSA | 0.16 ± 0.061
26 | KILMCPEHETERINMYCELCRRPVCHYCKLGGNHANHRVTTMSSA | -0.222 ± 0.16
27 | KILMCPEHETERINMYCELKRRPVCHLCKLGGNHANHRVTTMSSA | -0.547 ± 0.079
28 | KILMCPEHETERINMYCELCRRPVCHLCKLGGNHANHRVTTMSLA | -0.179 ± 0.054
29 | KILMCPEHETERINMYCELCRRPVCHLCKLGGNHANHRVTTMCSA | -0.129 ± 0.063
30 | KILMCPEHETERINMDCELCRRPVCHLCKLGGNHANHRVTTMSSA | -0.105 ± 0.11
31 | KILMCPEHETERINMYCELCRRPVCHLCKLGGNHANHRVRTMSSA | -0.089 ± 0.043
32 | KILMCFEHETERINMYCELCRRPVCHLCKLGGNHANHRVTTMSSA | -0.234 ± 0.094
33 | KILMCPEHETERINMACELCRRPVCHLCKLGGNHANHRVTTMSSA | -0.264 ± 0.11
34 | KILMCPEHETCRINMYCELCRRPVCHLCKLGGNHANHRVTTMSSA | -0.773 ± 0.1
35 | KILMCPEHETERINMYCELQRRPVCHLCKLGGNHANHRVTTMSSA | -0.504 ± 0.055
36 | KILMCPEHETERIDMYCELCRRPVCHLCKLGGNHANHRVTTMSSA | -0.13 ± 0.35
37 | KILMCPEHETERINMYCELCRRPVCHLCKLGGNHANHYVTTMSSA | -0.005 ± 0.093
38 | KILMCPEHETERINMYCELCRRPVCHLCKLGGNHANHRVTTMSFA | -0.263 ± 0.085

Row | Variant | abundance fitness
39 | KILMCPEHETERINMYCELCRRPVCHLCKLGGNHANRRVTTMSSA | -0.242 ± 0.045
40 | KILMCPEHETERINMYSELCRRPVCHLCKLGGNHANHRVTTMSSA | -0.897 ± 0.19
41 | KILMCPEHEFERINMYCELCRRPVCHLCKLGGNHANHRVTTMSSA | -0.337 ± 0.11
42 | KILMCPEHETERINMYCELCRRPVCSLCKLGGNHANHRVTTMSSA | 0.004 ± 0.062
43 | KILMCPEHETERINMYCELCRRPVCHLCKLGGNHANHRVTMMSSA | -0.142 ± 0.083
44 | KILMCPEHETERINMYCELCRRPVCHLCKFGGNHANHRVTTMSSA | -0.206 ± 0.14
45 | KILLCPEHETERINMYCELCRRPVCHLCKLGGNHANHRVTTMSSA | -0.187 ± 0.062
46 | KILMCPEHETERINMYCELCRRPVCHLCFLGGNHANHRVTTMSSA | 0.001 ± 0.096
47 | KILMCPEHETERINMYCELCREPVCHLCKLGGNHANHRVTTMSSA | 0.034 ± 0.062
48 | KILMCPEHETERINMYCELCRRPVCHLCKLGGNHLNHRVTTMSSA | -0.091 ± 0.056
49 | KILMCPEHETERINMYCELCRRPVCHLCKLGGNHANHRVTTMSAA | 0.031 ± 0.048
50 | KILMCPEHETERINMYCELCRRPVCHLCKLGGNHANHRLTTMSSA | -0.007 ± 0.053
51 | KILMCPEHETERIGMYCELCRRPVCHLCKLGGNHANHRVTTMSSA | -0.152 ± 0.076
52 | KILMCPEHETERINMYCELCRRPVCMLCKLGGNHANHRVTTMSSA | -0.237 ± 0.056
53 | KILMCPEHETERINMYCELCRRPVCHLCKLYGNHANHRVTTMSSA | -0.176 ± 0.058
54 | KILMTPEHETERINMYCELCRRPVCHLCKLGGNHANHRVTTMSSA | -0.703 ± 0.062
55 | KILMCPEHETERINMYCELCRRPVCHLCKLGGNHANHRVDTMSSA | 0.039 ± 0.074
56 | KILMCPEHETERINMYCELCRRPVCHLCKLGGNHANMRVTTMSSA | -0.298 ± 0.069
57 | KILMCPEHETEWINMYCELCRRPVCHLCKLGGNHANHRVTTMSSA | -0.269 ± 0.083
